The target in one series is ERα full length (UniProt P03372 1-595). In words: aptamer ELISA; 500 nM aptamer; ITC: 10 mM Tris-HCl pH 8.0, 25 C; aptamer binding buffer (SELEX): 20 mM Tris-HCl pH 7.6, 120 mM NaCl, 5 mM KCl, 1 mM MgCl2, 1 mM CaCl2, RT (ca. 27 C); ELISA: 2. Conditions: protein: commercial, chain copies: 2.
Another series has as its target PR-LBD (UniProt P06401 675-933). In words: aptamer ELISA; negligible binding; ITC: 10 mM Tris-HCl pH 8.0, 25 C; aptamer binding buffer (SELEX): 20 mM Tris-HCl pH 7.6, 120 mM NaCl, 5 mM KCl, 1 mM MgCl2, 1 mM CaCl2, RT (ca. 27 C); ELISA: 2. The conditions noted are these: protein: commercial; tags: GST. On the technique in general: An ELISA detects its analyte on a solid surface through an enzyme-linked reagent.

A further series deals with PR-DBD (human (cDNA from MCF-7), UniProt P06401 567-639). Described as above. Conditions: protein: recombinant; tags: His (pET100/D-TOPO).
Sequence of PR-DBD (P06401 567-639): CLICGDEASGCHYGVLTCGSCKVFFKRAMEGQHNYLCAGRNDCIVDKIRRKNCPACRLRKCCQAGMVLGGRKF

The values that follow come from PMC4820125, “Aptamer-Assisted Detection of the Altered Expression of Estrogen Receptor Alpha in Human Breast Cancer”.

Sequence of ERα full length (P03372 whole entry, the tested form may be a part): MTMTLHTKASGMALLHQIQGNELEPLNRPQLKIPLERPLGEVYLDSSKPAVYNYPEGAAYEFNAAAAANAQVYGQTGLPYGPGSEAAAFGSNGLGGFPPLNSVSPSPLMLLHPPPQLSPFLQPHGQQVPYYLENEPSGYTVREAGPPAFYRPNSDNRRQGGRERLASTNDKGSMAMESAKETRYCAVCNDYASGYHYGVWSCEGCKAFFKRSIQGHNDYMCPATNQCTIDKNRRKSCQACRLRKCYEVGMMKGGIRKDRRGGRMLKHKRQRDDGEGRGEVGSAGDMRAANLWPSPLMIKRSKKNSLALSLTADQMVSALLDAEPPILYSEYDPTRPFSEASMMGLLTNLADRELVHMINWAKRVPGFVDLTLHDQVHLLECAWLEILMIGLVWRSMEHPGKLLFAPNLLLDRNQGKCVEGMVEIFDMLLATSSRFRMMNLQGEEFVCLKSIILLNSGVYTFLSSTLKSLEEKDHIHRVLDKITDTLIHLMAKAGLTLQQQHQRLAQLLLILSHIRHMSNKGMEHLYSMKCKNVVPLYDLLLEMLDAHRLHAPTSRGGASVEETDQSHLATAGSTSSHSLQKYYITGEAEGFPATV
Sequence of PR-LBD (P06401 675-933): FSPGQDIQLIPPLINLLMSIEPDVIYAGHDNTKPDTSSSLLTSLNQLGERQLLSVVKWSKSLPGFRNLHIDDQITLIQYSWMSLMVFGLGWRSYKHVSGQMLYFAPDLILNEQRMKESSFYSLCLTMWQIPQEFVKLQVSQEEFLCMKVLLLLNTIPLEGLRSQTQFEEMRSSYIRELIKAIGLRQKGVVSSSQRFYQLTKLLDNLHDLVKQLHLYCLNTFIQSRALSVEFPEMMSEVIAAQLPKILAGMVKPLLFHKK

B1: ERaptD4 (ssDNA)
DNA: ATACCAGCTTATTCAATTCGTTGCATTTAGGTGCATTACGGGGGTTATCCGCTCTCTCAGATAGTATGTGCAATCA
For the molecule B1, in the series with ERα full length, the binding signal is 78.5 % of anti-ERα antibody signal. Besides, the binding result in the series with PR-LBD and with PR-DBD was “no binding” in each case.

B2: ERaptD3 (ssDNA)
DNA: ATACCAGCTTATTCAATTGGGGATAACGTCGTCACGTCGTGTCATCATTGGTTCAGTCAGATAGTATGTGCAATCA
With B2, the binding signal with ERα full length (label: biotin) was 47.3 % of anti-ERα antibody signal.

B3: ERaptD8 (ssDNA)
DNA: ATACCAGCTTATTCAATTCGAGTAACGCTGTCTCTTCCGAATCGGGGGAAGGCGGAGGAGATAGTATGTGCAATCA
On to B3, for which the binding signal with ERα full length (label: biotin) was 50.5 % of anti-ERα antibody signal.
